Source: the domain aggregation screens of Martell et al. (2025)

Assay: soluble fraction after stress (log2 fold change); higher = more stays soluble; pooled small domains, quantitative proteomics
Conditions: stress: 50 degC
Procedure, shortened: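 Each library was heated to 50°C as a stress step. The libraries, made up of small protein domains, were pooled and analysed at high throughput by quantitative proteomics. The reported value is the base-two logarithm of the fold change in each protein's soluble amount after stress, taken as a measure of aggregation propensity. The higher the value, the more protein stays in solution.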

Sequence	soluble fraction (log2)
HMSLDLERAVALLSLPRPVGNHPEDGELVEAGIGRYGPYVKHGSKYANLPDADEVFTIGMNRAVEVLAAK	-0.0399
HMLSPPWYEYHRKVQAMFGRDPEVHIKDLDDLGDGKFSYMILVYNKEKAEAIKAILPQKVEMGNVTIETAI	0.361
HMFVVVPDLIGKTINQFEEDLSELNLKYVVSDSGNFNPEFKINAVLDQSPKANSKVKDGRKIYLTLNAS	-0.432
HMTKYEKKIFEIVNASRDHLTAEQVLAALREEYPAVSQATVYNNLKKLTSDGLLRKLTLADSPDRYD	-0.208
HMGKAMIDWEREQSILRILLRQKALTTEQAREVYQDGMREDLSALEMGVQRGYFTHEQLREATGGE	0.0179
HMKYVDYYATLGVARDADLATITKAYRKLARQTHPDLNQGADNEARFKAAAEAYATLKHPEKRAAYDELGQ	-0.00408
HMDTNKMLIVNSISNGMKRLQELQDPQLAEIQKTFSGLDEQKATSAQLAQINNIINNRIAEIEG	0.145
HMDSRVRHAVLTTLLGKRIVDDLVEKGELPGTPLVLATAPGLDRDLEQLIAQRVVTALLTTV	-0.082
HMAKSETAKIKATPYGWLRVRDTPSLNGAEIARVNSGDEYKVLEKETGWIKIKVSDTVEGWVSDAYIELS	-0.0312
HMDYKAELDNIIRDHLDMEGPLLPVLHAVMARFSYIPKDAIPIIARKLNLSSAEVSGVISFYHDFKKEK	-0.561
HMGLIAPMPGQIRSVAVSVGDVVKKGQTLLTMEAMKMEIRIQALKDGRVTALHAAQGQTVEGEQILIEVE	-0.000533
HMKLRKINLIGIFGSKTAPSALVRLTNGRVLKVGLGELLDGGRVTAIGRSSLTYNKSGKSITLNMPI	-2.73
HMSSSYMVRITTSVLNVRKGPGTNYGITTKVKKGEVYTIVAEEKNGNTTWGKLKSGTGYISLGYTER	-1.29
HMYPFSEETLKEKIREYLKTNRSINRRVLEREFYIRKQTALNWLNRLVDSGFLIKEGVRNSPVYFLAE	-0.691
HMSYPFSEDALKEKIREYLKHNRSINRKVLEAEFHIRKQTALNWLKKLEKSGFLIKEGSRNAPVYFLAE	-0.832
HMNPLDGTSVHPESYEAAEKLLKKQGFSLEDISGGKLTGLSLTIKDYARLAKELEIGEITLRDIVKELEK	0.0193
HMEAYSAEAVRFRIKAMIESETVDDVMSDDKIVERLLADGVDIARRTVAKYREAMNIPSSVKRRRKLKGM	-1.53
HMELRSPMPGLIIEIPVSKGDIIKKDQSLIILEAMKMENVLTSPINGKIADIKVNVQDTVEKNNLLITFEN	-0.164
HMVQIIQLQGTDKRLYELVAPLVMNPEILKQNYNYPFRTSEDFVWFVAVDKKKVIGFIPVEEKKKEYVI	-0.0678

Sequence	soluble fraction (log2)
HMIESVMVGIKELLGDTIDQKYEKYIRLGGIPSDEVDEFNSVFSAYEKVNGNHNGKKKYDYVMNNLPIIPV	-0.26
HMGMAETTARILQLLGLLQSRRGWSGQELAERLGVTTRSVRRDVERLRELGYPVHASAGHGGGYQLGA	-1.8
HMNEAVVVPDVKGLTLDEADEFFKNSKLRYNVVDSVFSKDVAPGAIVELVPVAGSKVKENRIVFVTINAQ	-0.17
HMLLLHINQMGVTEFSQLELNHVRSWLANLQIKGAARSSITRRVVSVRAFTYWGAKNGWLASDIGRDLVAP	-0.277
HMSEEVDVPDLVGMQLEEAEKSLEPLGLKLKIAKEIPNSEFEKGKIVDQKTKAGEKVKTGYTIEVTVSSG	-0.267
HMKNAYDLKMLVKDNDGNIERNMKYYFFLANGSKVEGITDDNGYTKTITTIQPEKADLHLINDELI	-1.1
HMASMEDILAEAKTKFQEGDLFKSVNEGIQGTHKLTLPLRIKESRIVDASGAAVYREGIWATVDK	0.108
HMAKQQTTTTAHVVTTGETLYSIAQKNGISVEELKKSNNITSDKLRPGQTLHITKVSKTSSTAK	0.365
HMPVSLHEQIQQARIRAEQNVEGISLLLQVNPKYYEQIEAGDVIPDQDLLKRISSLFGWNYHEMLHREKSS	-0.239
HMKEIATKSELTYFIQRLLDLLEETNFFNPEERKKAMINHIEAIFRRNNLTLQELNMLHGIITSITR	-2.62
HMISDAEWTIMKALWQSEDKKMTLKEIAEAVADSGWSYTTVRTMVGRLVEKEAIEADESHPRNFRYSAA	-1.23
HMDEFEEGVITYFNSEKGFGFIRESKTKQSVFVHSKQLSSPVQLNDKVKFIVNKGLKGLEATEVSVI	-0.235
HMRIFDDNMIFPTEAEISAALKRLVMDLPKVGFLQGHGERAVDNVGERAYSMFTHANNFRYALINQGFVT	-0.176
HMAVSNWQKLVSSIQTQLKILALYHGPEDGIYGPNTRSAIMLYEENIGLPVTGEPSRELLAHMLDQTD	-0.869
HMDRVSEITLTRLRDYAADGQVRTATLTHRTNVVTGTLRDGRRFSAGVPPMYGDELTTFLLDNGVRVDSDN	-0.167
HMAPLAVIFPEPWRGMIAPEKLEGLTQALSLNPRPGYQHDPTRRYGVSLDGLDVRFTIDGDTLTVVEVVT	-0.635
HMNQSYQLWIKDDELGPTPRSVGVLNEHFEVDPAALTNYDAELLRRATFGISLEPRGGSPTGQP	-0.0224
HMKELTPEQLQHNWNNLRQFIDVNFSGDRLGGLNKMYDYFEERMMFAPASGKQHYHNAFAGGYVEHVMHV	0.335
